Test: soluble on expression in E. coli; label from the status in PepcDB or PDB records

Sequence	soluble on expression in E. coli
MKSNEHDDCQVTNPSTGHLFDLSSLSGRAGFTAAYSEKGLVYMSICGENENCPPGVGACFGQTRISVGKANKRLRYVDQVLQLVYKDGSPCPSKSGLSYKSVISFVCRPEAGPTNRPMLISLDKQTCTLFFSWHTPLACEQATECSVRNGSSIVDLSPLIHRTGGYEAYDESEDDASDTNPDFYINICQPLNPMHAVPCPAGAAVCKVPIDGPPIDIGRVAGPPILNPIANEIYLNFESSTPCLADKHFNYTSLIAFHCKRGVSMGTPKLLRTSECDFVFEWETPVVCPDEVRMDGCTLTDEQLLYSFNLSSLSTSTFKVTRDSRTYSVGVCTFAVGPEQGGCKDGGVCLLSGTKGASFGRLQSMKLDYRHQDEAVVLSYVNGDRCPPETDDGVPCVFPFIFNGKSYEECIIESRAKLWCSTTADYDRDHEWGFCRHSNSYRTSSIIFKCDEDEDIGRPQVFSEVRGCDVTFEWKTKVVCPPKKLKHHHHHH	soluble
MGSDKIHHHHHHMNTQPVIGISGCLTGSAVRFDGGHKRMGFVMDELAQWVAFKPVCPEMAIGLPVPRPALRLVQTPVGEIRMRFSHAPHEDVTEKMADFASAHLATLGGLSGFIVCAKSPSCGMERVRLYDEKGNRGRKEGVGLFTGALMARYPWLPVEEDGRLHDPLLRENFVERVFALHELNALRARGLTRHGLLAFHSRYKLQLLAHHQAGYREIGPFVASLHEWEDLEAFFEVYREKLMAILKQPASRKNHTNVLMHIQGYFRDQLNSRQRGELREVILNYRAGLLPILAPLTLLKHYLAEYPDRYLQAQNYFDPYPQDLALRLTVN	not soluble
MSDVAIVKEGWLHKRGEYIKTWRPRYFLLKNDGTFIGYKERPQDVDQREAPLNNFSVAQCQLMKTERPRPNTFIIRCLQWTTVIERTFHVETPEEREEWTTAIQTVADGLKKQEEEEMDFRSG	soluble
MSTTFAARLNRLFDTVYPPGRGPHTSAEVIAALKAEGITMSAPYLSQLRSGNRTNPSGATMAALANFFRIKAAYFTDDEYYEKLDKELQWLCTMRDDGVRRIAQRAHGLPSAAQQKVLDRIDELRRAEGIDA	soluble
MGSDKIHHHHHHMIGKFFASINLSDVAAMAGIPISFMTAYSISPEIEISFLEDIESGIMKVLKMYDVDFIGGDLKEGMDLILTGIAIGKQKKTLTRKRSDIGRKQMVAYTNKLGRAASGYIFYKSGYDSVEGINMMLGITPRLEEARIISEYGAKFMMDLSDGLYSSLNQMKADYGVGFKIVEDEVVYDDSARKAAEISGASVYDIACGYGGDYELLFTVPEENYRDFAQAMESNNIEVHFIGETWEGENIVFDGKTWTKMKDEGYEHFRPKPQLGEIR	not soluble
MVKDCSYSILLPTYNERENLPYILYFIEEVFESMGERYEVIVVDDNSPDGTLEVAKKLQQVFGSDKVVLAPRAGKLGLGSAYSHGLQFAKGNFIIIMDADLSHHPKYIADFVRKQREGSFDVVTGTRYRGEGGVFGWNWRRKLTSVGANLLAQLLLNPGVSDLTGSFRLYRRQAFEQLIHRTRSKGYVFQMEIIVLAKKLGLRVGEVPIVFIDRLYGESKLGGREVIQYLSGLLCLMFQK	soluble
MGSSHHHHHHSSGRENLYFQGHMFFTDWEGPWILTDFALELCMAVFNNARFFSNLSEYDDYLAYEVRREGYEAGYTLKLLTPFLAAAGVKNRDVERIAELSAKFVPDAEKAMATLQERWTPVVISTSYTQYLRRTASMIGVRGELHGTEVDFDSIAVPEGLREELLSIIDVIASLSGEELFRKLDELFSRSEVRKIVESVKAVGAGEKAKIMRGYCESKGIDFPVVVGDSISDYKMFEAARGLGGVAIAFNGNEYALKHADVVIISPTAMSEAKVIELFMERKERAFEVLSAVSIPETEIYIMENSDFGEVLEKSKRMRVRLRGLAGELGGS	soluble
MGKALIIGCGGVASVAVHKCVQNSEVFEEICIASRTKSKCDALKAKLDGGKTKITTAQVDANNVDELIALIEEVKPDVVMNLALPYQDLTIMDACLATKTNYLDTANYEPEDTAKFEYKWQWDYRERFEKAGITALLGSGFDPGVTGVFSAYALKHHFDEIEYIDILDCNAGDHGYPFATNFNPEINIREVSANGRYWENGEWVETNPMEIKRVYNFPEVGEKDMYLLYHEELESLAVNIPGIKRIRFFMTFSESYLTHLKCLENVGMTSIEPIEFEGKEIIPLQFLKAVLPDPASLGPRTKGKTNIGCIFKGKKDGKDKTYYLYNVCDHEECYKEVGSQAVSYTTGVPAMIGAMMLMTGKWNKPGVYNIEEFDPDPFMEALNKWGLPWKEDHNPQLVDSDPIKETELVR	not soluble
MSLSIFEHFQARYEAAKDEELSIQDFLALCKENKSAYANAAERLLLAIGEPEMIDTSKHSRLSRIFSNRVIARYKTFEDFYGMEEAIEQIVAYLKHAAQGLEERKQILYLLGPVGGGKSSLAEKLKALMQQMPIYVLSANGQRSPVNDHPFCLFDVNEDGELLKQEYGIDRRYLRSIMSPWAAKRLHEFGGDITKFKVVKVRPSILDQIAVAKTEPGDENNQDISSLVGKVDIRKLEHFSQDDPDAYSYSGALCRANQGLMEFVEMFKAPIKVLHPLLTATQEGNYNGTEGLSALPFDGMILAHSNESEWQTFRNNKNNEAFLDRVYIVKVPYCLRVSEEVKIYQKLLDHSELSKAPCAPSTLDLLAQFSVLSRLKVPENSSLFSKMRVYDGETLKDTDPKAKSYQEYRDYAGVDEGMSGLSTRFAFKILSRVFNFDHSEVAANPVHLFYVIEQQVEREGHHHHHH	not soluble
MSNASSTSSGRSSRAEVLWADVLSHIPFVKRFTTPDSRKEQKVRILSKNEVDEEDGVQLEQLIQNQEVILCHSSSMNFHQQCRGSVVDFEYIEKKVKVTVSSESDFPIWEDTDIWMQALSTPTSSLYAIDANTSVNSELIEDESVVQEQKEQISERAPLRLSDDIEEFGDVLVDVIKKKTDTKNNVFTITLGLTGFARFHAEIQLSKESTYYLNFDDGYEDDLASLASEEDILSGYQTIQNVDELCDKIGELTVTDVCIKTWFDILHNYAYIRLIVTSAKRKLQHFKLLTGHHVIIQSATSDRDTVLAVVSRVMKDGIVLTLQGVKKQTKNFVFSKNELFTIQIDHNYEDRLQKLTGKEEEHENLRRELINSDSDIRLHRSWKSNGKQYATFTSKNDAFKKIPFNTKFLLGKCWEAEGVLEKKADFIFAIRVADKNFSTPSTMTFEIKFTRNLVRNSKDFELSKAFYYVDFDLAHFVESDHCYSLLNAKSVNGKPDETVVKSCPIDEDLVFSVFPFQCGRRAEERRRGYQESQREVQSSTKKPDVKVEKNVKLEAPEKQNKRKDTALNPKEKYCAQKLEKQLNDQTKTPKQKPKQETSAGIKRESTQRPCVIPRTFETSNSKDASNKVPLQSVSEPKILLQDTNSRCAQPRKAVSHEGLKSHQQENVLKHLDNKHKFLCFVNIAKRIENDNGNPLVELSIGFDENGGKVQQSPWPLGIRMLLTDGLEKTEVKIQGDVQDTNGETVTFMIQQQLSDLDFLNSYKPKKLLACFREHGHNLK	not soluble
MVKVKIYYKDREWPPEYRKVLEKMKEIIDPVTGESILDSGVLAGLEVKGDTLKVWLKFESNAEYNILGSAAMAYSKIVGDIMEKFALVMFDKVYVYDLGNNPIGIFENKGNGRK	soluble
MGSDKIHHHHHHMTSVEPTKAVLFLQGPPSILWTEFARAFEQAGVKTHHVNFTLGDFLFWRKRGAKNYRGSFSKWPAYLRRLIAEKGITDIVYYADRLPYHAKAAEIGEELGVRCHAVEWGYLRPDWLTFERDGMGRFSHFPNDPKAIRAIAAKVEEPDIAVKYPHTFGQEAFNEVIYNLLNFFGRPFYPLYNADKYYSALVDYLPWLLKAGVKPARLPEGFLEDGQPPFYLVALQLQSDYQIRANSPYRHLRDMMRQVIASFVKNAPAGSKLLFKQHPLDNGLERWHKVLRHIAREFKIEDRVVFIEEGDLHDILQKTAGVVIVNSTVGLHSLRAQKPTIVLGCAVFDVPGLTHQGRLDDFWKRPEPVDPELMRDLVKAMAATIQIKGDFFNKAGRQAAIGAMVQRVIEGTVNMPDAFIDPPPRLTSPKGILTVLGRPVELDWEEDAAVPDMTYARSGPIR	not soluble
SNRKKLQKLTDTLTKNCKHFNKFEVNCLIKLFYDLVGGVERQGLVVGLDRNAFRNILHVTFGMTDDMIMDRVFRGFDKDNDGCVNVLEWIHGLSLFLRGSLEEKMKYCFEVFDLNGDGFISKEEMFHMLKNSLLKQPSEEDPDEGIKDLVEITLKKMDHDHDGKLSFADYELAVREETLLLEAFGPCLPDPKSQMEFEAQVFKDPNEFNDM	soluble
MGSDKIHHHHHHMRNAVIFTGIPMQYPLELTFKFWALAPQISVIDAQGNLVFYVKQKLFKLKEAITIFADVERTRPLYYIKADRIIDFSARYEFTDSNGTNIGAVKRRGLKSLWRARYDIFDGDTTTLNIQEKNPWVKIADALFAEIPIVGIFTGYVFNPVYLVSRSDGTVVMRLEKIPSFLSRKFTIKQVDQISDREEQQVLLSLMMMLLLERNRG	not soluble
MEFFGESWKKHLSGEFGKPYFIKLMGFVAEERKHYTVYPPPHQVFTWTQMCDIKDVKVVILGQNPYHGPNQAHGLCFSVQRPVPPPPSLENIYKELSTDIEDFVHPGHGDLSGWAKQGVLLLNAVLTVRAHQANSHKERGWEQFTDAVVSWLNQNSNGLVFLLWGSYAQKKGSAIDRKRHHVLQTAHPSPRSVYRGFFGCRHFSKTNELLQKSGKKPIDWKEL	soluble
KDDKVASATDVQFETPLKIVEYPDPILRAKNKRIDIFDENLKNLVDAMFDVMYKTDGIGLSAPQVGLNVQLMVFNPAGEPGEGKEIVLVNPKIKKYSDKLVPFDEGCLSFPGIYAEVVRPQSVKIDARDITGERFSISLSRLPARIFQHEYDHLEGVLFFDRMTDQVLDSIREELEALEKKYEEKTGLPSPER	soluble
MLSHMVLTRQDIGRAASYYEDGADDYYAKDGDASEWQGKGAEELGLSGEVDSKRFRELLAGNIGEGHRIMRSATRQDSKERIGLDLTFSAPKSVSLQALVAGDAEIIKAHDRAVARTLEQAEARAQARQKIQGKTRIETTGNLVIGKFRHETSRERDPQLHTHAVILNMTKRSDGQWRALKNDEIVKATRYLGAVYNAELAHELQKLGYQLRYGKDGNFDLAHIDRQQIEGFSKRTEQIAEWYAARGLDPNSVSLEQKQAAKVLSRAKKTSVDREALRAEWQATAKELGIDFS	soluble
MGHHHHHHSHGRLTLSAQHISHRPCLLSYSLLFWKVHHLFLEGFPCSPRLDEMSFHQFPQHPVHVSVVHLPIVYKGSMTQVSPH	not soluble
MLKIGIIPNEDKDEELKYTRILVDSIKKCGGTAIVCDDIALKLGDKESNINEDNIVDMSDVMVCLGGDGTFLKAARMTVVKGKPLLGVNLGKLGFLADVDKNDIENAVKRLVEDKFTVDERMMLDTVIVRDGKIIAEDIVLNDVVISRGAISRILHLKTYINDAFMDLYPGDGLIISTPTGSTAYSLSAGGPLVEPDVDLIICTPICPHLLYSRSFITTADRVIKVVVAESSSHEAMVTVDGQNGYEVRGGDVIITKKSRIRMPMVRLNGKNFFDVLRGKIYDRGESMK	not soluble
